Experiment: soluble on expression in E. coli; label from the status in PepcDB or PDB records

Sequence | soluble on expression in E. coli
MDVENEQILNVNPADPDNLSDSLFSGDEENAGTEEVKNEINGNWISAYSINEARINAKAKRRLRKNSSRDSGRGDSVSDSGSDALRSGLTVPTSPKGRLLDRRSRSGKGRGLPKKGGAGGKGVWGTPGQVYDVEEVDVKDPNYDDDQENCVYETVVLPLDERAFEKTLTPIIQEYFEHGDTNEVAEMLRDLNLGEMKSGVPVLAVSLALEGKASHREMTSKLLSDLCGTVMSTTDVEKSFDKLLKDLPELALDTPRAPQLVGQFIARAVGDGILCNTYIDSYKGTVDCVQARAALDKATVLLSMSKGGKRKDSVWGSGGGQQSVNHLVKEIDMLLKEYLLSGDISEAEHCLKELEVPHFHHELVYEAIIMVLESTGESTFKMILDLLKSLWKSSTITVDQMKRGYERIYNEIPDINLDVPHSYSVLERFVEECFQAGIISKQLRDLCPSRGRKRFVSEGDGGRLKPESY | soluble
PQDAVIWLGAEKTGLKLTNSSNTFEGVIDGVDITVTKAQTSGETAIGLGIGADDEATKEQLNKFVDAYNTLISTIDEHTQIGSEDKKRGVLASDPTMRSIESQLSSLVRGEHGGMRLSEIGVTLDRHGKLKVDQEKFAEAQKNNSAGLEAMFNGDGALLDSMDAMAEPFLKFSSGAFKSRKEALQANLDRLSDKQTTLERKYDMSYKRYLKQFTQMNTLMTQMNQ | not soluble
MSLLQSALDFLAGPGSLGGASGRDQSDFVGQTVELGELRLRVRRVLAEGGFAFVYEAQDVGSGREYALKRLLSNEEEKNRAIIQEVCFMKKLSGHPNIVQFCSAASIGKEESDTGQAEFLLLTELCKGQLVEFLKKMESRGPLSCDTVLKIFYQTCRAVQHMHRQKPPIIHRDLKVENLLLSNQGTIKLCDFGSATTISHYPDYSWSAQRRALVEEEITRNTTPMYRTPEIIDLYSNFPIGEKQDIWALGCILYLLCFRQHPFEDGAKLRIVNGKYSIPPHDTQYTVFHSLIRAMLQVNPEERLSIAEVVHQLQEIAAARNVNPKSPITELLEQNGGYGSATLSRGPPPPVGPAGSGYSGGLALAEYDQPYGGFLDILRGGTERLFTNLKDTSSKVIQSVANYAKGDLDISYITSRIAVMSFPAEGVESALKNNIEDVRLFLDSKHPGHYAVYNLSPRTYRPSRFHNRVSECGWAARRAPHLHTLYNICRNMHAWLRQDHKNVCVVHCMDGRAASAVAVCSFLCFCRLFSTAEAAVYMFSMKRCPPGIWPSHKRYIEYMCDMVAEEPITPHSKPILVRAVVMTPVPLFSKQRSGCRPFCEVYVGDERVASTSQEYDKMRDFKIEDGKAVIPLGVTVQGDVLIVIYHARSTLGGRLQAKMASMKMFQIQFHTGFVPRNATTVKFAKYDLDACDIQEKYPDLFQVNLEVEVEPRDRPSREAPPWENSSMRGLNPKILFSSREEQQDILSKFGKPELPRQPGSTAQYDAGAGSPEAEPTDSDSPPSSSADASRFLHTLDWQEEKEAETGAENASSKESESALMEDRDESEVSDEGGSPISSEGQEPRADPEPPGLAAGLVQQDLVFEVETPAVLPEPVPQEDGVDLLGLHSEVGAGPAVPPQACKAPSSNTDLLSCLLGPPEAASQGPPEDLLSEDPLLLASPAPPLSVQSTPRGGPPAAADPFGPLLPSSGNNSQPCSNPDLFGEFLNSDSVTVPPSFPSAHSAPPPSCSADFLHLGDLPGEPSKMTASSSNPDLLGGWAAWTETAASAVAPTPATEGPLFSPGGQPAPCGSQASWTKSQNPDPFADLGDLSSGLQGSPAGFPPGGFIPKTATTAKGSSSWQTSRPPAQGASWPPQAKPPPKACTQPRPNYASNFSVIGAREERGVRAPSFAQKPKVSENDFEDLLSNQGFSSRSDKKGPKTIAEMRKQDLAKDTDPLKLKLLDWIEGKERNIRALLSTLHTVLWDGESRWTPVGMADLVAPEQVKKHYRRAVLAVHPDKAAGQPYEQHAKMIFMELNDAWSEFENQGSRPLF | soluble
MGSDKIHHHHHHMPTKRGQIRHDPSSKKATTMDLNRRPVASLWIGESLQYLNQLCLKSHLRHGHPVTLYCTDKVTNAPEGVVVKPATDIMDIPMNIVEQTSASFLSNVFRYKMIQQTGAIWIDCDAFCHAPFPDEWEHIYAGHGMRGALNCGVVGIPQQGELMDQLLDYYDNLPDYPPWWNPRQRKRMDRQDSNLPLAVRIYKTERTAFGPQAFTHFARETGDIDRAMTSDVLYPVPFQLNDIFYDPHGRVEGWFSENTRSVHLYTNGTKPWWRKNPPLENSYAWRMCQEVGITPEDALE | not soluble
MIWNEHHECMGRDQLASLQGERLRQMVERIYYNVPFYRNKLQEMGIEPGDIRSIDDLKKLPFTTKQDLRDNYPFGLFAVPQQDIVRFHASSGTTGKSTVVGYTHNDIMMWSEVVARSLTMAGVTKHDIIQVAYGYGLFTGGLGLHYGAEKIGASVIPISGGNTKKQLQLLEDFGSTAIACTPSYAAYLGEAIMEEKLDRSKIKLKAGIFGAEPWTEEMRSQIQQLLGIKAYDIYGLSEVIGPGVSMECSIQHGMHVFEDHFIPEIINPETGEVLPYGELGELVFTAVTKEALPLLRYRTRDLTRLHVERCDCGRTLVRMEKCVGRSDDMLIIRGVNVFPSQVESVLLEMSETKPHYLLVVDRQNNLDTLEIQVEVEDQFFSDEVKELEGLRKRISGNLTSILGLHANVRLVEPGTIERSQGKAQRVVDKRKLNEHKETP | not soluble
MAHHHHHHMQDDKINSKDDISSSSSCEENDENKNILNPPNRTKMSKGERRARKMLVKLGLKAIPNVHKVIIKKSQKMVFAVSNVEVYKVEGTDSYVIFGDAKTDDITNSINNFIPENLPKDVDVPVEPEINFEAADKEEQKVKDLDDENVGDVSMDDVELIMSQTKCSRDMAISALRKNNNDFVQSIMELSG | soluble
MDICDISASQLATSPPPRTAIDFNSSIEESPVKRVKFSPELTKSFEETLSPTVTLVLRNNEEVIFDRYLLSFYSNYFRVLFSSKFRDSNSTTHRIRLISASDLHFLLTIPKAFEQGIKPNITLQKAIELLEPAAFLQMSIALDYISDIICKNLTHENIIKIFRLALLYHTTLAVRVWRSMVRKFQTLFATNVYLSLKENELIGLLTDKHLNLKSEDETTVVVNWIKHNSPLQSDRLTQFAQRNFSRRPQPDATKYEVIRTRQPMDAIVCFGGWASRGVAQKIEVCNTRSDRWQTCNFNYDIPNIHRAYHGIEVVEDKLIVYGGFDGIKQFQTTVLFDLSTKEWRRGANMNDKRCYVTSARVNDSYGRPLVFACGGMNGVSRLKTAEMYDYRADQWTEVANMTQMRSDGAVVTIDNKIVAIGGFDGRNIHQGGEVYDPVLDLWHPLSSNMRTRRTGCTAVSIMNQVCMIIGGFNGNRRLDSAEIYDMREGLWHPEPTLQTARSNFSACQMDTCYVYVAGGFDGQTTTKESERLDLRSKMWQALPDMAEAKSALRMVTLSDHPFLDELFDIPDDTGIVTSW | not soluble
MGSDKIHHHHHHMKKLLNTLYLTQEDFYVTKEGDNIVIKQEGKVLKRFPFRIIDGIVCFSYLGVSSALVKLCTENQINLSFHTPQGRFCGRYIGSTNGNVLLRREHYRLSDREESLEYAKRFILAKISNSRKYLLRFKRDHRQQIDTKLFEAVNDELIWALEMVQAADNKDSLRGIEGQAANQYFRIFNDLVLTDKKTFYFQGRSKRPPLDCVNALLSFGYSLLTFECQSALEAVGLDSYVGFFHTDRPGRASLALDLVEEFRSYIVDRFVFSLINKGQLQKKHFEVKENGSILLTENGRAIFIDLWQKRKHTEVEHPFTKEKVKLMLLPYVQAQLLAKAIRGDLESYPPFMV | not soluble
MGSDKIHHHHHHLYVPLLIRQQYIRSGPDYRFSEPVSFLDIKQTFGFSHVRVGRWVTREESRIAANLVFDSLADLAFILKLPPLTLGLRQTLSLAFGHGGQKGVQAHYAPATRELALAKNAGAGALAHEFWHAFDHYIAPKAFNLSEGHFLCASDLWLADSPLIKHPLNLRLSEIFKVTLLSPDGKEPSDYVRRALALDKRYGTRYFSQPTEMMARAFEACIESYRDISNPYLVSGTSFSAMAKEGAYPDELHRQRIFTALLDYFEPLGIALAK | not soluble
TYKKPSDAELKRTLTEEQYQVTQNSATEYAFSHEYDHLFKPGIYVDVVSGEPLFSSADKYDSGSGWPSFTRPIDAKSVTEHDDFSYNMRRTEVRSHAADSHLGHVFPDGPRDKGGLRYSINGASLKFIPLEQMDAAGYGALKSKVK | soluble
MENNLAEFERRAEKNLLIMCKEKEKLQKKAHELKRRLLLSQRKRELADVLDAQIEMLSPFEAVATRFKEQYRTFATALDTTRHELPVRSIHLEGDGQQLLDALQHELVTTQRLLGELDVGDSEENVQVLDLLSELKDVTAKKDLELRRSFAQVLELSAEASKEAALANQEVWEETQGMAPPSRWYFNQDSACRESGGAPKNTPLSEDDNPGASSAPAQATFISPSEDFSSSSQAEVPPSLSRSGRDLS | soluble
MGSDKIHHHHHHMNYKTLVMKILIINQHSMNHGDEAAGKALIRTLYDRGFQDIAVSYNMNDFDASCLFKYKNVKQILPTKKKARGLDKITKLYLKCPCFITRFLTLMYLQRRREVKMIKEANIVISAPGGVNMGLYRDYGYVWRLKEVLYQGKSLVIYSPSIGPFTTNDFFRKIAKEILTRSTFVSLRDTQSYRYAEDLSVHYIQSIDTAYLETPRMDLPLELLNLLPKEYVVLVPNELYSWHIDYFHYDKRSIDRFYSSLIDKFTSNGLTVVLLPQLFYQPNMEDEDYFNRLKAENEKVIVIPTYYDSDIQQAIIKRAQFVVGARYHTIVFSINNETPFVCLSYEHKMKNMLEILSLDSYSIDISYAFENHKIVIDKIWKMYLDRVSVLNVLYDGKKKAKLLARKTFDFLIKKLRSM | not soluble
MQTFGSRGEKRTFEMLTNEVEYQHYRFSFANNPATAAGIFQLAEIELTVVADAPLVDFASNISRAEIGENVQFWDRSLANPTGWQWTFEDGEPATSTNRNPAVTFTSLGAKSVTLVASNDKGSNEKVQEQVVHIWDSQNPWAGYVKPTVTLVAHKPEHEGQIAFSRVMPDIEAVIHDISLQIVKVLYKDVAEAPLFKTVTFETDEYDFPAAKSGTDEDMILMMDVAHLANKAAEGDDALRDEVIGMLWHELTHGYNNSPNSGEYATGDEYHSYLESLANYMRIKAGFHESRRVGIKWVDNWNVDAYEQTSFFLEWVANSHRSVDFIYLFNKAAGDLKEWSFEAAFKSIFGEDKGVSIFWQEYHDAQGIEPPYPTPVDGYRNFAVDEGVSISTNATTVIIPDWDAYEGEDKLIDNNVTKKFNAFIEGTWWLEEHASHLFPINDITNVEVTFELPDAIVLHKYSVTTGNDNPQRDPTLWTISGSVDGEVWTQLDSDNYPSDPERLITFHYDIDDAVTAYKYYQFVFENTQPAGDSIGGDNGRLVQIGEIALLTEELEHHHHHH | soluble
MSLFPAELMVVRKAQDGTIRPLMIAPDHVDIAEKVIEIYRSSAGRTRKEISKDIVTIEYGIKNPKIVRGLALIMDRMSTFRNRSRVDSKQLRGFLFQMGPAVSPEERQEKIALAAEHFSVSPQDIEEAIYGDMDSENVLDQCPSITPEHLNRRYNLEQLTTLMYRSKFIEVSGINNWYRFISLIKRQGLVFEAQGNPLMSVRIDGPNSVFNNMERYGSSMARVVERLTAFPGWKLHAEVEIKDRVYSVDLDSSISYYLPETDIEEEEAIPDPVVIGTRVFFPTRIINVHGQDVYVDIVYHMSPEAIKRRDEMIRSSGIKWITAVVGECKKFQGVLCFRNRVDWDAIIAKASEEYPATTDALREEIDRLYPNTEAILDLLDSRSIPLSHLEKIGYRIKWNGILPEIVRSTEGHHHHHH | soluble
MGSDKIHHHHHHMIKQVNPHFKEFLFDWNQKFQFLVGGYGSSKSYHVALKIVLKLLREKRTALVIREVYDTHRDSTFSLFDELVSDLKLDHIVRCVSSPMQIRFSNGSRIIFKGMDKPAKLKSINNISLIWIEECSEVKYEGFKELLGRLRHPTLPLHMILSTNPVGEDNWTFKHFFKDDREKRFVLDDKELYEKRIIVSNDTYYHHSTADDNLFLPESYVQQLEELKEYDPDLYRIARKGHFGVNGIRVLPQFEERPHEEVMTAISNINRPLKRVGMDFGFVESYNAVVRVAVDHEKKYLYIYWEYYKNGLTDDKTAEELKEFAETKELIKADSAEPKTIRYFQQHGFNMVGARKYQGSRLQYTKKIKRFRKIICSDRCENTIYELKPLAYATDKLGNIIEDEFTIDPHTLSAIWYALDDYEVTDLKEESKGRPQRSRPGRR | not soluble

Reference: the DeepSol protein solubility set
